The target in this assay is ClpA (E. coli) (UniProt P0ABH9). Description: cell-based or functional assay.
UniProt P0ABH9, sequence (P0ABH9 whole entry): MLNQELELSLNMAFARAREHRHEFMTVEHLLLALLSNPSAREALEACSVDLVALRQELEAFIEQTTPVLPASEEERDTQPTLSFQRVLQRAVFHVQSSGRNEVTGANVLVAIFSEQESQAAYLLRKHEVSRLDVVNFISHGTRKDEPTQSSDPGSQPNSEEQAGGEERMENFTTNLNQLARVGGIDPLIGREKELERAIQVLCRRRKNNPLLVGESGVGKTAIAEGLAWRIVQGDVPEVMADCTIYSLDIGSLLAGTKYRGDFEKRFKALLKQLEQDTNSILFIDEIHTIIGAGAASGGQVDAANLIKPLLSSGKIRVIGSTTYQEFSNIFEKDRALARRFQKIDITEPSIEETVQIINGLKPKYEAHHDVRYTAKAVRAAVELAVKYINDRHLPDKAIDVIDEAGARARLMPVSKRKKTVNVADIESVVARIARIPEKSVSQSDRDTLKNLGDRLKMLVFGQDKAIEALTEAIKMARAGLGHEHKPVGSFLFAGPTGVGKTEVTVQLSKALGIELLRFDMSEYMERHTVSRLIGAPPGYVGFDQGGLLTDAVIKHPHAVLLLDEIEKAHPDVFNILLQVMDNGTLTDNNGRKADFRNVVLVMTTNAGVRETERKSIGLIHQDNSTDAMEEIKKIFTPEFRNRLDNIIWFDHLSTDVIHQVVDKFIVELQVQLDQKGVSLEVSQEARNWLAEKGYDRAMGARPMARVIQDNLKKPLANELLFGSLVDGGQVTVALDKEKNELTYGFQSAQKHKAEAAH

In turn, ClpS came in with an MDH activity (reactivation of heat-aggregated malate dehydrogenase), rate and yield greater than 2 fold.

The record behind these values is patent publication EP1149909A1.
